The source of these data is article PMC6587469.

“And” between values parts separate entries of the source, which are not always exact repeats. Equal values may be shown once.

Experiment [1] has as its target MabSelect SuRe protein A ligand: tetrameric chain of Z-domains (recombinant form of the B domain of (Staphylococcus aureus)). Nature of the experiment: batch adsorption isotherm.
Experiment [2] has the same target. Nature of the experiment: SAXS.

As to Trastuzumab (antibody), the stoichiometry N (antibody molecules per ligand) in experiment [1] stood at 2. The stoichiometry N (antibody : protein A chain) in experiment [2] is 1 and 2.
